Data: patent publication US6881834

What was measured:
Sp1 = Sp1 (UniProt P08047); experiment: cell_activity; conditions: luciferase induction in Drosophila cells
Sp3 = Sp3 (UniProt Q02447); experiment: cell_activity; conditions: luciferase induction in Drosophila cells
Sp3, sequence (Q02447 whole entry): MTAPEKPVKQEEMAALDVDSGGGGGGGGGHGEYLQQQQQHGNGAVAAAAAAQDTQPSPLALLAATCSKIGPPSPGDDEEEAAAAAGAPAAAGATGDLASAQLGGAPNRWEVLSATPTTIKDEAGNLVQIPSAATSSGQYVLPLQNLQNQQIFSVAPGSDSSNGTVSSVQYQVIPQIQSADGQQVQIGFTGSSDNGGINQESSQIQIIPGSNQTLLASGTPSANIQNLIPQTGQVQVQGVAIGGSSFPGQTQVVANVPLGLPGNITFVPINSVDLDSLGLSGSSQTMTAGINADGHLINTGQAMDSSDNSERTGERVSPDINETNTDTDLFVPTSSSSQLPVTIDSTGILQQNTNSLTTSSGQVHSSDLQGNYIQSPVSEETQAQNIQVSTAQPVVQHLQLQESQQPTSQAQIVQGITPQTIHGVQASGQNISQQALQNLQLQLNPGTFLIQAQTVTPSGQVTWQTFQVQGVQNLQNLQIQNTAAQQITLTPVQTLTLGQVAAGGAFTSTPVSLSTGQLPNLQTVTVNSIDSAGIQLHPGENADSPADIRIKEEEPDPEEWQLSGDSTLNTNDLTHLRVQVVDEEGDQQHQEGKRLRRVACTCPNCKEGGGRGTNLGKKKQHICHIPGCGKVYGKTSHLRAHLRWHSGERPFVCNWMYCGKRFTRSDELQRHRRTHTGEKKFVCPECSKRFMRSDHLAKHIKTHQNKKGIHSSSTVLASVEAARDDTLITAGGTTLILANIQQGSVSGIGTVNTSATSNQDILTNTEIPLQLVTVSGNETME

Sp1, sequence (P08047 2-785): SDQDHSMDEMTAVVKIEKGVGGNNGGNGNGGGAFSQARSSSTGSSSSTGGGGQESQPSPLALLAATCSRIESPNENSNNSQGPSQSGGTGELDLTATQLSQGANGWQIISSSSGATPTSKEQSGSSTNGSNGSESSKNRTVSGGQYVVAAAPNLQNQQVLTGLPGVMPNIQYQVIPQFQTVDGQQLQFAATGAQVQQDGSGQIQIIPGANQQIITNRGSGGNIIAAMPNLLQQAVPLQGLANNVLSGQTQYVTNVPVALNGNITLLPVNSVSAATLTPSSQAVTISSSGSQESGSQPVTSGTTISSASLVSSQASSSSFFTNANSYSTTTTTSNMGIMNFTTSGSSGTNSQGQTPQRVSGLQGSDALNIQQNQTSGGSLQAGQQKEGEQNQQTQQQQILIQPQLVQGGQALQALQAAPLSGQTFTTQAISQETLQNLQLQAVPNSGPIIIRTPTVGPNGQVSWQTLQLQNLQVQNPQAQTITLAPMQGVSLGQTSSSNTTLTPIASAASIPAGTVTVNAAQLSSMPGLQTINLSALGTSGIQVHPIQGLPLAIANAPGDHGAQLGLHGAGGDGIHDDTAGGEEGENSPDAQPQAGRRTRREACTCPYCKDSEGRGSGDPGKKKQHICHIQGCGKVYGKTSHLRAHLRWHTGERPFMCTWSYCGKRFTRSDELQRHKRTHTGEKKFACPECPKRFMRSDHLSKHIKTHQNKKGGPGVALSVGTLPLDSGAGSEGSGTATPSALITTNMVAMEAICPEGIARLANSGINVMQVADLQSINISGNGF

Substance: CD11c promoter -196/+30 (CD11c-luc)
- activity (Sp1): 19.5 fold
- activity (Sp3): 18.9 fold
